This assay deals with Hen eggwhite lysozyme (HEWL), control (no iodoacetamide), in 50 mM phosphate buffer at pH 12.2 (hen) (UniProt P00698). The assay is described as follows: single-molecule force spectroscopy (AFM pulling); HEWL aggregates formed after 4 days of incubation at pH 12.2, 120 uM in 50 mM phosphate buffer, on a gold coated coverslip; pulling speed 400 nm/s.

These results are taken from paper PMC3925087.

Regarding “Hen eggwhite lysozyme (HEWL), control (no iodoacetamide), in 50 mM phosphate buffer at pH 12.2 (from UniProt P00698 19-147) (enzyme)”, the average detachment force was 1000 pN and the mechanical stability (detachment peak force) was 300 to 2600 pN.
